The values below come from the supplement of paper PMC10567573.

± gives the standard deviation.

This series in a line: protein stability index of a GFP-peptide fusion (GPS, HEK-293T) (PSI 1-6); higher = more stable.
The mark [1] stands for this setting: treatment: DMSO, c terminus: a fixed tail appended.
Where [2] appears, read: treatment: MLN4924 1 uM, 8 h, c terminus: a fixed tail appended.
[3] abbreviates: treatment: DMSO, c terminus: native.
Setting [4] is: treatment: MLN4924 1 uM, 8 h, c terminus: native.
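Note: 24-mer peptide tiles fused after GFP, lentivirally expressed, FACS-sorted into six equal bins by GFP/DsRed ratio, decoded by Illumina sequencing, PSI is the read-weighted mean bin number.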

Take APHSTFFDPIVLLPCDLPKVVSRA [LPCAT4]: the protein stability index is 2.67 ± 0.31 under setting [1] and 2.72 ± 0.15 under setting [2].

Sequence DAILYYYQSGGRIRRPVNVPIDIF [KCNA3] displayed a protein stability index under setting [1] of 2.2 ± 0.61 and a protein stability index under setting [2] of 2.58 ± 0.76.

On to PPLPLHPGGDQGGPPVGPLSLGLA [WAS], for which the protein stability index is 4.26 ± 0.25 under setting [1] and 4.45 ± 0.15 under setting [2].

As for QMQEDNSSFSLLLDLLSELYQKQP [INTS3], the protein stability index runs as follows: under setting [1], 2.38 ± 0.16; under setting [2], 2.37 ± 0.31.

In the case of EDPVPGMLFFLPPGQHLSDYSQLN [FBXO34], the protein stability index by setting is: under setting [1], 3.03 ± 0.35; under setting [2], 3.11 ± 0.38.

Take FPVSVTQQSPAAVSMETYHVTLTL [C2CD2L]: the protein stability index under setting [1] was determined as 3.29 ± 0.38 and the protein stability index under setting [2] worked out at 2.9 ± 0.36.

TLKIRNSNFYTVAVTSLSSQIQYM [TMEM106C]: the protein stability index was 2.23 ± 0.37 under setting [1] and 2.13 ± 0.36 under setting [2].

For the sequence FSSNIHTYHVGKQCFFNGVFLGNK [SPATS1], the protein stability index reads like this: under setting [1], 2.56 ± 0.39; under setting [2], 2.05 ± 0.32.

Sequence GYSIKVFDFERSGLQHAPEPDAAD [SMAD6] registered a protein stability index under setting [1] of 4.26 ± 0.37 and a protein stability index under setting [2] of 4 ± 0.17.

On to DYPYSPPAFRFLTKMWHPNIYETG [CDC34], for which the protein stability index was 2.17 ± 0.62 under setting [1] and 1.94 ± 0.28 under setting [2].

Turning to TPLIQQRARDSPEPGAGLGIGDMA [PSD2], the protein stability index under setting [1] worked out at 4.55 ± 0.24 and the protein stability index under setting [2] is 4.37 ± 0.12.

With WKESKGKDREYTDIIRKQVLGTKV [CDC34], the protein stability index is, setting by setting: under setting [1], 3.66 ± 0.17; under setting [2], 3.7 ± 0.4.

On to KRKREEEEEKEPLAVDSWWLDPGH [SERTAD1], for which the protein stability index under setting [1] came to 4.64 ± 0.38 and the protein stability index under setting [2] is 4.79 ± 0.15.

Take RLFLVEDLVDSLKLAVFMWLMTYV [RTN3]: the protein stability index under setting [1] worked out at 2.72 ± 0.65 and the protein stability index under setting [2] was found to be 2.64 ± 0.78.

For QWWNAVFIMLLIGIVLPVFYLVYF [LYSMD4], the protein stability index is, setting by setting: under setting [1], 2.2 ± 0.16; under setting [2], 2.14 ± 0.17.

As for VDSPKNFNIAGTVVKYRRPMDVYE [ADAMTSL2], the protein stability index reads like this: under setting [1], 3.44 ± 0.36; under setting [2], 3.49 ± 0.54.

As to LSDSGAFRRSLHDPDGLVATYISE [APMAP], the protein stability index by setting is: under setting [1], 4.12 ± 0.2; under setting [2], 4.02 ± 0.23.

For the sequence YSYMSPNKCSGMRFPLQEENSVTH [KMT5A], the protein stability index under setting [1] stood at 3.35 ± 0.25 and the protein stability index under setting [2] was found to be 3.14 ± 0.1.

Regarding GISAKVFGATTNYGKDIVKACSLL [ZBED1], the protein stability index amounted to 2.33 ± 0.4 under setting [1] and 2.26 ± 0.35 under setting [2].

For the sequence TFDIDPMVVTDCIQVDPPERPPPP [MCOLN1], the protein stability index was 4.69 ± 0.29 under setting [1] and 4.89 ± 0.35 under setting [2].

Regarding LNKLYPTHACREYLKNLPLLSKYC [TPH1], the protein stability index by setting is: under setting [1], 2.41 ± 0.45; under setting [2], 2.23 ± 0.46.

Take SKGMSIFLDILRRADKNDDGKLSF [NECAB1]: the protein stability index is, setting by setting: under setting [1], 2.27 ± 0.12; under setting [2], 2.33 ± 0.17.

With LHYAAMHGRARIARLMLESEYRSD [ASB7], the protein stability index worked out at 2.73 ± 0.19 under setting [1] and 2.77 ± 0.28 under setting [2].

For the sequence YKNIKRPPGDIMFLLVQRFGELMR [USP39], the protein stability index amounted to 2.29 ± 0.16 under setting [1] and 2.14 ± 0.17 under setting [2].

Turning to QVLLKGMTSISLPSVMDPGAFETV [ZBTB22], the protein stability index runs as follows: under setting [1], 2.61 ± 0.36; under setting [2], 2.84 ± 0.37.

Consider LTTKDYMEMYNVIMTVKEDQFSAL [SLC6A17], for which the protein stability index is, setting by setting: under setting [1], 2.37 ± 0.39; under setting [2], 2.38 ± 0.29.

Consider MKQRDNCKIRIQRQLEIMGKEVSG [STX11], for which the protein stability index came out at 3.27 ± 0.18 under setting [1] and 3.39 ± 0.33 under setting [2].

Take RAFNTDHQTQLLYQASAMMVESRY [RAD51]: the protein stability index reads like this: under setting [1], 2.42 ± 0.35; under setting [2], 2.68 ± 0.22.

Regarding AEADEPTTHFQSIPDAFWWAVVTM [KCNA4], the protein stability index came to 2.04 ± 0.76 under setting [1] and 2.11 ± 0.22 under setting [2].

For the sequence CSKSYSRRSFLIEHQRSHTGERPH [ZSCAN9], the protein stability index reads like this: under setting [1], 3.42 ± 0.073; under setting [2], 3.52 ± 0.36.

Regarding PDHFDTAILFTRQDLCGVSTCDTL [ADAMTS4], the protein stability index by setting is: under setting [1], 2.83 ± 0.21; under setting [2], 2.94 ± 0.4.

Consider LDDGEIDEIRWKYHSDTTPKIIES [IQUB], for which the protein stability index under setting [1] stood at 4.25 ± 0.23 and the protein stability index under setting [2] was 3.98 ± 0.24.

Consider NDNSSDLLYDDLYDDDIDDEDEEE [UBE2R2], for which the protein stability index is, setting by setting: under setting [1], 5.61 ± 0.41; under setting [2], 5.63 ± 0.18.

RFPLMTPQELINYVQTVDFMRTDN [KLHL13]: the protein stability index by setting is: under setting [1], 2.71 ± 0.26; under setting [2], 2.83 ± 0.34.

Consider MRDQYMRAGEGFIICYSITDRRSF [RIT1], for which the protein stability index reads like this: under setting [1], 2.37 ± 0.82; under setting [2], 2.11 ± 0.38.

In the case of SLPKRLCLVCGDVASGYHYGVASC [ESRRA], the protein stability index by setting is: under setting [1], 2.22 ± 0.28; under setting [2], 2.43 ± 0.48.

Take RRLQEVLGVQTGGPGGRRAGEPGH [DYRK1B]: the protein stability index runs as follows: under setting [1], 4.12 ± 0.3; under setting [2], 4.18 ± 0.26.

Take PGDPSKDRAAKRLSLESEGAGEGA [TPPP]: the protein stability index reads like this: under setting [1], 5.47 ± 0.22; under setting [2], 5.33 ± 0.38.

In turn, TVPSAATSQPTPSQHSAHTSSQP [CCDC6] displayed a protein stability index under setting [3] of 5.42 ± 0.23 and a protein stability index under setting [4] of 5.33 ± 0.15.

Consider IEPYITNFFNQVLMLGKTSISDLS [PDS5B], for which the protein stability index runs as follows: under setting [1], 3.01 ± 0.42; under setting [2], 2.91 ± 0.45.

As to WSECSRTCGEGYQFRVVRCWKMLS [ADAMTSL2], the protein stability index by setting is: under setting [1], 3.1 ± 1.8; under setting [2], 2.19 ± 0.34.

For the sequence DQHRLYKQIKAGAYDFPSPEWDTV [CAMK2A], the protein stability index under setting [1] was determined as 3.29 ± 0.23 and the protein stability index under setting [2] was 3.3 ± 0.24.

As to FGRLVANVLKSYIGLGHIYSGTFA [CLCN6], the protein stability index under setting [1] turned out to be 2.94 ± 0.42 and the protein stability index under setting [2] was determined as 2.79 ± 0.33.

As for QALKRKKRFEKQLTQIDGTLSTIE [CHMP4C], the protein stability index came to 4.05 ± 0.18 under setting [1] and 3.96 ± 0.23 under setting [2].

In the case of LLTSPRAINNLVLQGCSSIGLRLV [KLHL14], the protein stability index reads like this: under setting [1], 2.92 ± 0.53; under setting [2], 2.74 ± 0.69.

In the case of GPDHRLRLWRLFQTLDVNRDGGLC [SLC25A25], the protein stability index was found to be 2.29 ± 0.11 under setting [1] and 2.23 ± 0.22 under setting [2].

As to LRARNYEYLIRLFQEWEAHRNLSQ [TCF25], the protein stability index is, setting by setting: under setting [1], 2.13 ± 0.38; under setting [2], 2.18 ± 0.35.

In the case of LFVIVPVLGPLVALIICYNWLHRR [MOG], the protein stability index under setting [1] was found to be 3.38 ± 0.68 and the protein stability index under setting [2] was 3.11 ± 0.58.

Turning to EVALDKGCSQFRLAVLDWNQRAMD [SAT2], the protein stability index amounted to 2.94 ± 0.48 under setting [1] and 2.95 ± 0.28 under setting [2].

As for YFTDLFDYLPLTALVDGQIFCLHG [PPP2CA], the protein stability index is, setting by setting: under setting [1], 3.22 ± 0.39; under setting [2], 2.91 ± 0.3.

On to NCSGPAPAAKPDPDGGRADEWACE [P3H4], for which the protein stability index runs as follows: under setting [1], 5.36 ± 0.17; under setting [2], 5.44 ± 0.16.

LWVEERALLEGEKALWEDKTSLWE [CCDC70]: the protein stability index is, setting by setting: under setting [1], 2.6 ± 0.036; under setting [2], 3 ± 0.11.

VCDLQSLLGYTPEELHAMLDVKPD [ETS1] returned a protein stability index under setting [1] of 4.04 ± 0.21 and a protein stability index under setting [2] of 4.07 ± 0.12.

EQGFQEGVPNASVIMQVPERIVVA [MFF]: the protein stability index was 3.76 ± 0.35 under setting [1] and 3.83 ± 0.042 under setting [2].

Turning to PVIPAAALAGYTGSGPIQLWQFLL [ETS1], the protein stability index is, setting by setting: under setting [1], 2.68 ± 0.26; under setting [2], 2.68 ± 0.28.

For GRTPLIKLSPKKTWEGFIGGFFAT [CDS2], the protein stability index under setting [1] was 1.91 ± 0.24 and the protein stability index under setting [2] amounted to 2.09 ± 0.55.

Turning to HIDPEIQDGSPTTSRRPSGTGTGP [PDLIM4], the protein stability index was 5.26 ± 0.26 under setting [1] and 5.42 ± 0.26 under setting [2].

Regarding DGHIDINEFLEAFRLVEKSCPEGD [PPEF2], the protein stability index is, setting by setting: under setting [1], 4.67 ± 0.37; under setting [2], 4.71 ± 0.17.

For PERRRSPGPAPGSPGELEEDLLLP [WEE1], the protein stability index runs as follows: under setting [1], 5.33 ± 0.28; under setting [2], 5.37 ± 0.38.

ESGTKGLFAGFLPRIIKAAPSCAI [SLC25A39] had a protein stability index under setting [1] of 2.24 ± 0.12 and a protein stability index under setting [2] of 2.47 ± 0.28.

Take LVTGGELFEDIVAREYYSEADASH [CAMK2A]: the protein stability index worked out at 3.92 ± 0.37 under setting [1] and 3.91 ± 0.17 under setting [2].

GAARLALLQGAGLDVERWLKPAMT [FCHSD1]: the protein stability index worked out at 2.5 ± 0.53 under setting [1] and 2.45 ± 0.36 under setting [2].

For the sequence QVLSAKERHLVEIKQKLGMNLMNE [TPD52L1], the protein stability index stood at 3.04 ± 0.12 under setting [1] and 3.04 ± 0.13 under setting [2].

In the case of GSAPFLFLSLACARGSIVATYIFI [SPNS1], the protein stability index by setting is: under setting [1], 3.15 ± 0.53; under setting [2], 2.9 ± 0.46.

Sequence IKSDEECRDLVDEAKNYLLLPQER [KLHL20] yielded a protein stability index under setting [1] of 4.68 ± 0.14 and a protein stability index under setting [2] of 4.64 ± 0.13.

LVLLRDGRTLIGFLRSIDQFANLV [LSM1]: the protein stability index was 2.23 ± 0.52 under setting [1] and 2.47 ± 0.47 under setting [2].

Turning to QEKARQLLGRLKPSHTSRTLILS [MYBL2], the protein stability index is, setting by setting: under setting [3], 2.12 ± 0.29; under setting [4], 2.32 ± 0.042.

Consider LKAFNMFVRLFVDENLDRMVPISK [NOL4L], for which the protein stability index came to 2.67 ± 0.61 under setting [1] and 2.41 ± 0.27 under setting [2].

With LYCSTPTRTAEPAESSVPPVTSIG [SLC35F2], the protein stability index under setting [1] turned out to be 3.98 ± 0.25 and the protein stability index under setting [2] turned out to be 4.08 ± 0.2.

For KGNLLRHIKLHSGEKPFKCHLCNY [IKZF1], the protein stability index reads like this: under setting [1], 2.37 ± 0.38; under setting [2], 2.4 ± 0.23.

Sequence EMHFLENAKKLSMYGVDLHHAKDS [EPB41L3] had a protein stability index under setting [1] of 3.03 ± 0.67 and a protein stability index under setting [2] of 2.8 ± 0.25.

On to SGEKPYKCSDCGKAFLTKTMLIVH [ZNF649], for which the protein stability index is, setting by setting: under setting [1], 3.52 ± 0.24; under setting [2], 3.68 ± 0.35.
